# Data from paper doi:10.1101/2024.05.28.596263.
# Key:
# Assay in all cases: cryo-EM structure
# [1] = target: dephosphorylated CFTR of the P-ATP + AMP-PNP sample (human) (UniProt P13569)
# [2] = target: fully-phosphorylated CFTR carrying the ATP-hydrolysis-disrupting E1371Q mutation (human) (UniProt P13569)
# [3] = target: recombinant human CFTR (cystic fibrosis transmembrane conductance regulator), wild type, dephosphorylated (human) (UniProt P13569)
substance,measurement,setting,value
protein kinase A catalytic subunit purified from bovine heart (from UniProt P00517 1-351) (enzyme),stoichiometry N (PKA-C per CFTR),[1],1
same,stoichiometry N (PKA-C per CFTR),[2],1
same,stoichiometry N (PKA-C per CFTR),[3],2
